Measurements published in US20250027071A1.
Like-named read-outs stand apart in the source and are kept apart here.

B1: truncated human wild-type Lipocalin-type prostaglandin D synthase (L-PGDS) (enzyme, UniProt P41222 23-190, looked up)
Prostaglandin-H2 D-isomerase: APEAQVSVQPNFQQDKFLGRWFSAGLASNSSWLREKKAALSMCKSVVAPATDGGLNLTSTFLRKNQCETRTMLLQPAGSLGSYSYRSPHWGSTYSVSVVETDYDQYALLYSQGSKGPGEDFRMATLYSRTQTPRAELKEKFTAFCKAQGFTEDTIVFLPQTDKCMTEQ
modifications: C-terminal His6 tag

Columns and labels:
Aβ (1-40) peptide [1] = system: Aβ (1-40) peptide
[2] = system: TGFBIp G623R peptide (23-amino acid peptide from the 4th FAS1 domain of TGFBIp with the substitution G623R)
[3] = target: TGFBIp G623R peptide (23-amino acid peptide from the 4th FAS1 domain of TGFBIp with the substitution G623R); assay: cell-based or functional assay
Aβ (1-40) peptide [4] = assay: cell-based or functional assay
[5] = target: TGFBIp G623R peptide (23-amino acid peptide from the 4th FAS1 domain of TGFBIp with the substitution G623R); assay: cell-based or functional assay; remark: listed apart in the source

Molecule | ThT disaggregation assay of mature Aβ (1-40) fibrils, 24 h (Aβ (1-40) peptide [1]) | ThT fluorescence relative to untreated G623R fibrils after 48 h (disaggregation assay, 10 µM L-PGDS : 50 µM fibrils) [2] | ThT fluorescence intensity relative to the G623R control after 48 h (fibrillation inhibition assay, 10 µM L-PGDS : 50 µM monomeric peptide) [3] [%] | also measured
C65A L-PGDS (C65A single mutant of truncated L-PGDS) | significant (p<0.05) retention of disaggregation activity across all L-PGDS mutants after 24 h of incubation | 70.56%±8.18% (SD) | – | –
C65A L-PGDS (C65A single mutant of truncated L-PGDS) (enzyme) | – | – | 102 | –
RA L-PGDS (K58R+C65A double mutant of truncated L-PGDS) | significant (p<0.05) retention of disaggregation activity across all L-PGDS mutants after 24 h of incubation | 72.78%±20.42% (SD) | – | ThT assay of Tau VK26 aggregation (100 µM peptide with 5 µM or 10 µM RA L-PGDS) (Tau peptide VK26): RA L-PGDS almost completely inhibited the aggregation of the Tau protein; fibril length from TEM micrographs after disaggregation treatment [2]: RA-L-PGDS treatment did indeed produce shorter fibrils as opposed to WT L-PGDS
RA L-PGDS (K58R+C65A double mutant of truncated L-PGDS) (enzyme) | – | – | 51.4 | ThT fluorescence relative to Aβ (1-40) control (inhibitory assay, 24 h) (Aβ (1-40) peptide [4]): 96.1%
B1 | significant (p<0.05) retention of disaggregation activity across all L-PGDS mutants after 24 h of incubation | 68.78%±18.20% (SD) | – | ThT fluorescence intensity relative to the G623R control after 48 h (fibrillation inhibition assay, 10 µM L-PGDS : 50 µM monomeric peptide) [5]: 52.5%
